Test: soluble on expression in E. coli; label from the status in PepcDB or PDB records
With “AIAERSFVWLSCLDSDSCNLTFRLGEVESHACSPSLLWNLLTQYLPPGAGHILRTYNFPVLSCVSSCHLIGGKMPEN” the “soluble on expression in E. coli” value was “soluble”.
With “MKYLLPTAAAGLLLLAAQPAMAMASGGNSDSKTLNSLDKIKQNGVVRIGVFGDKPPFGYVDEKGNNQGYDIALAKRIAKELFGDENKVQFVLVEAANRVEFLKSNKVDIILANFTQTPQRAEQVDFCSPYMKVALGVAVPKDSNITSVEDLKDKTLLLNKGTTADAYFTQNYPNIKTLKYDQNTETFAALMDKRGDALSHDNTLLFAWVKDHPDFKMGIKELGNKDVIAPAVKKGDKELKEFIDNLIIKLGQEQFFHKAYDETLKAHFGDDVKADDVVIEGGKILEHHHHHH” the “soluble on expression in E. coli” value was “soluble”.
With “MMQIDRNEKADAWLAHTQREQSGRLTIFLGAAPGVGKTYAMLTRAHELMQQGKQVVVGVVETHGRADTARLIAGLNVIPRRVVEYQDRKLEEMDLDQILHIKPEIVLVDELAHRNVPGSRHEYRWQDVNEILDAGINVYSTLNIQHLESLNDVVYQITGIRVTETVPDALLKRLKDIRLVDLPVPELLERMKHGKIYLDDMAPHALQGFFKPAHLTALRDLAIQTVAGQV” the “soluble on expression in E. coli” value was “not soluble”.
In the case of “MAHHHHHHMAEALHERHFFDKFIKMNIPDDYLDASRFRVIPDNQEVYVHKFQDKCLIIEILCFQNMNIQEKGNFYFYDLAKENDSIENVIITSNHSVPHSQGNYILLVGRQKIKKNNSSTHEPILLYICIFPLEEHNADIIITWNVPKEDMDIQPELETFNEMMQSFRILDYTLFV”, the “soluble on expression in E. coli” value is reported as “soluble”.
In the case of “MSLTTRVIALDLDGTLLTPKKTLLPSSIEALARAREAGYQLIIVTGRHHVAIHPFYQALALDTPAICCNGTYLYDYHAKTVLEADPMPVNKALQLIEMLNEHHIHGLMYVDDAMVYEHPTGHVIRTSNWAQTLPPEQRPTFTQVASLAETTQQVNAVWKFALTHDDLPQLQHFGKHVEHELGLECEWSWHDQVDIAHGGNSKGKRLTKWVEAQGWSMENVVAFGDNFNDISMLEAAGTGVAMGNADDAVKARANIVIGDNTTDSIAQFIYSHLIEGHHHHHH”, the “soluble on expression in E. coli” value is reported as “not soluble”.
For “SLAGPKESRDLTLEQFQVNFLDQYTIKHAFINGVNIYRCYPGAPPNNVQMVMQRSHGTEVPGIMVNLEGQQPTVVPLDASIIGAKKLTPTTTRPLHNVRVLRVNAVMRFHPLCRARFVGPNDISFGIRSATSQSIQEHIQELTDLMKKTQQADEQAMGALYSRSSALVSKLKMSGATSNVAFLEVPQTETRWGNPWTWYRAYLPTPLGDGVETWMTPIGDSGYYITVDFNFTESERQKNTENYQRARQLMDSVLQSVVIQKR”, the “soluble on expression in E. coli” value was “soluble”.
For “MSLKKNFALEKKKELQEMTNSAVRRVLDFKKDPNKVIELLNFMARSPQYSFKNQMMVSSQYENSNFTMGSRQFKETMGLKVNENATPIKIVAPVMNTFFKRNDKLVQLRFANKEEKEKIKNKEIKTIQNVWYYKLVDVYDITQTNAKPEDFPEYYPDRRYNFYVKNTEVIDDIISANKKLLKDNNIHLIENHTYNQLGTSVGFAGKNLTGDKIVGYRDGLNKTEILHTLLHETTHAFYHQKENPEKTTELKEFEAEMTAYIVAKRFGVDTSEHTIKYVSDWTESMSKIEDIEQSIKTVSMYSSRIINDIEKQIDPVKIKEGHHHHHH”, the “soluble on expression in E. coli” value was “not soluble”.
With “MSLKIRQARLEDLDRIVELEFENFSVEEAIPPSVFEAHLREIQTSFLVAEKEGRIMGYIEGPVGLHRHLQDQSFTEEIKDYSHEPGGYISVTCLSIAKEAQGLGLGQKLLTALKEVALEDERDGINLTCHDYLIAYYEKHGFVNEGQSQSTFAGETWYDMVWEMKKEGHHHHHH” the “soluble on expression in E. coli” value was “soluble”.
With “MIFCTVGSGIEGYEQSFSKISVEGYDTSVHEFPLKLALAKHFASCGKIVDIDVPRDFKKRILKSPLFIIFHAKEGESPVDKALELSGTDVGGWNVVVKSLPGQQMYRDPGGVDRFKGERTLIVKVYDTPSTLSKIDLQIGLCKHFSSCGEVTGISVLVHGNLCCHESKARVDIMGKGCVDKALELSGRTADGWKIVVYFVVPPAGRKLKPTGSGHPTIGVERMKKAELKKKAKMEMMDKGKKKRKTTE” the “soluble on expression in E. coli” value was “not soluble”.
In the case of “MGSDKIHHHHHHMKKTIILSDENYYSQEADLAYMSVSQYKKFLECEAAALAKLKGEWTPENDPKALLVGNYVHSYFESPEIHEAFKEENKSKMFSSRKPFGLLKDFQIAEQMIERLKQEEAFLNIYQGEKEVIVTGEIGGAMWKGKIDCLNLEEKYFVDIKTTKDMHEKKWDERLNRKANFIERFGYVLQMAVYCELLRQQYDKIFLPLIAAVSKQTPSEAKLITLSEEKMIYELEELKENIEHVVRVKNGEEEPVSCGICEYCRGHNKITNFTSMDDL”, the “soluble on expression in E. coli” value is reported as “not soluble”.
With “RIPVVGITGSKGMTTIARFVASLLTLSGRRTGLACSSGLYLDHRKIDHGNCANHKSARRILMNRTVEAAVFENGFDTMLEEGLPYDSCQVGIVTRIEPALHFAHQWIDTSEQVFKVLRTQVDVVSPTGGKREGDILPEIILPTGAAILNAQDPMLVQMADLCQGEVIYISCDPTLPVISVHRQEGTGPTRGKRAVTVRNWEILLIDGTAETILIRLDELQAKTGNHPVETAHLLAGVGAGWALGMSPDLIRTGLITFLQHQEKQSIVYQTF” the “soluble on expression in E. coli” value was “not soluble”.
With “ASASTPHALLLISIDGLRADMLDRGITPNLSHLAREGVRARWMAPSYPSLTFPNHYTLVTGLRPDHHGIVHNSMRDPTLGGFWLSKSEAVGDARWWGGEPVWVGVENTGQHAATWSWPGSEAAIKGVRPSQWRHYQKGVRLDTRVDAVRGWLATDGAQRNRLVTLYFEHVDEAGHDHGPESRQYADAVRAVDAAIGRLLAGMQRDGTRARTNIIVVSDHGMAEVAPGHAISVEDIAPPQIATAITDGQVIGFEPLPGQQAAAEASVLGAHDHYDCWRKAELPARWQYGSHPRIPSLVCQMHEGWDALFPDKLAKRAQRGTRGSHGYDPALPSMRAVFLAQGPDLAQGKTLPGFDNVDVYALMSRLLGIPAAPNDGNPATLLPALRMPPAPDAR” the “soluble on expression in E. coli” value was “soluble”.
For “MGSDKIHHHHHHMDTELARTFLTVAATGNFVAAASRLHVTQSTVSARIQTLETTLGARLFQRGRNGAELTASGKRFLRHAKHLVRTVEQALHDVGLPQGFHDVLTLSGRIALWEGFLPHWVAWMREAAPDVSLRLEIGFEADIMQGLIEGTTDIGVMYTPTSRPGLVVEPLFDENLMLVTSDLARGWPEEGYIHIDWGPEFHAQFSDHFPDAPPPTVVANIGWLGVQQLLTYGGSGYFPQRLVRQLIEDGRLWRVPDSPQFKLTAWMVFPREGSATLKSALDGLRTLARDEQARL”, the “soluble on expression in E. coli” value was “not soluble”.
For “MIFENRLALSAMAGVNNAEFCRKQKASLVILGGFNADRRALEAAEKAVKRGRKEFLFGIDGIEGEIKKLGRRKFAVNVRSSSLEGYLNVAELVAEFEGIIEINAHCRQPEFVEIGCGEWLLFNHERLVEIVSKTSRIAPTFVKIRGGHKLDYEKIARKLFDAGCLAIHVDAMIPGGGCDFSLIERISRIGNVIGNNSFVDIESGERIIMAGAKMASAARAVLRDENFFEKMLRSPLLSQPVELSCGRFR”, the “soluble on expression in E. coli” value was “not soluble”.
With “AKIDNAVLPEGSLVLVTGANGFVASHVVEQLLEHGYKVRGTARSASKLANLQKRWDAKYPGRFETAVVEDMLKQGAYDEVIKGAAGVAHIASVVSFSNKYDEVVTPAIGGTLNALRAAAATPSVKRFVLTSSTVSALIPKPNVEGIYLDEKSWNLESIDKAKTLPESDPQKSLWVYAASKTEAELAAWKFMDENKPHFTLNAVLPNYTIGTIFDPETQSGSTSGWMMSLFNGEVSPALALMPPQYYVSAVDIGLLHLGCLVLPQIERRRVYGTAGTFDWNTVLATFRKLYPSKTFPADFPDQGQDLSKFDTAPSLEILKSLGRPGWRSIEESIKDLVGSETA” the “soluble on expression in E. coli” value was “soluble”.
With “MPLEEGVLIDCTLGLGGHSKALLSQKPHLKLIGIDKDKFAQEIAKERLKAFEGRYNLLSGGFAKRFKEALETHNKEIKGVLVDLGVSSLQLDDDNRGFNFHSHTLDMRMDLESELNAQKVINSYPIVALEKIFRDYGEIKEYKKIAHKIAERRAKKPFKNAKDLSEFLSSFSKNKKIHPATLVFQAVRIEVNSELEELKEFLQCARNLKGAILCVISFHSLEDALVKNAFKDYAKNCICDPSSFKCACSNNHALGEILTKKPITPSPEEIKNNRRSRSAKMRVFQFKPLEHHHHHH” the “soluble on expression in E. coli” value was “not soluble”.
In the case of “GSNKLHLRVVTLIEHPFVFTREVDDEGLCPAGQLCLDPMTNDSSMLDRLFSSLHSSNDTVPIKFKKCCYGYCIDLLEQLAEDMNFDFDLYIVGDGKYGAWKNGHWTGLVGDLLSGTANMAVTSFSINTARSQVIDFTSPFFSTSLGILVRTRGTELSGIHDPKLHHPSQGFRFGTVRESSAEDYVRQSFPEMHEYMRRYNVPATPDGVQYLKNDPEKLDAFIMDKALLDYEVSIDADCKLLTVGKPFAIEGYGIGLPPNSPLTSNISELISQYKSHGFMDVLHDKWYKVVPCGK”, the “soluble on expression in E. coli” value is reported as “soluble”.
In the case of “MGSSHHHHHHSSGLEVLFQGPHMSYQVLARKWRPQTFADVVGQEHVLTALANGLSLGRIHHAYLFSGTRGVGKTSIARLLAKGLNCETGITATPCGVCDNCREIEQGRFVDLIEIDAASRTKVEDTRDLLDNVQYAPARGRFKVYLIDEVHMLSRHSFNALLKTLEEPPEHVKFLLATTDPQKLPVTILSRCLQFHLKALDVEQIRHQLEHILNEEHIAHEPRALQLLARAAEGSLRDALSLTDQAIASGDGQVSTQAVSAMLGTLDDDQALSLVEAMVEANGERVMALINEAAARGIEWEALLVEMLGLLHRIAMVQLSPAALGNDMAAIELRMRELARTIPPTDIQLYYQTLLIGRKELPYAPDRRMGVEMTLLRALAFHPRMPLPEPEVPRQ”, the “soluble on expression in E. coli” value is reported as “soluble”.
In the case of “MAHHHHHHMDARVHRSKRGCGRVLKRSRASSPEVVAEVGTGRPGDPFVLPLRSSPNGSGCHHCPEHSCDCLYVSKELERCYLSLQVSRQVTCKGRRELCAKSVLPPFVARLLRVANVTADDTFYDLGCGNGSVLFHVALATGASCVGVEINEHNAKVAKEAWTHLRPVFEKRRGRKLDVSIVCGDFCKVLKQDNYFSSSCVVWIANLLMPRFVNHYLSERLRSLPIGSRVLCMEDLYPHSRSVAAARDPDAFEKFEMVDYRWQEDSVEWSPASGPFYLYIKRS”, the “soluble on expression in E. coli” value is reported as “not soluble”.
In the case of “MGSDKIHHHHHHMKFLRSLAFLNLQKKFKNKFNINILDYIKPKPTKICFKDFENKYLTAKQKEVLFDIESNNYSKVIFSGGIASGKTFLASYLLVKKLIENKSFYEQDTNNFIIGNSIGLLMTNTVKQIEKICSLLGIDYEKKKSGQSFCKIAGLKLNIYGGKNRDAFSKIRGGNSAIIYVNEATVIHRETLLEVIKRLRKGKEIIIFDTNPESPAHYFKTDYIENTDVFKTYNFTTYDNPLNSADFIQTQEKLYRRFPAYRARVLYGEWILNESTLFNEMIFNQDYEFKSPIMYIDPAFSVGGDNTAICVLERTFEKFYAYIYQDQKPVSDSLMLASIQVLIENFNVNTVYIEERDSTKGDGILTKTILFLRNKSSHYFKVAPIKPLSNKFKRICALIPLFESRKIEFLKIISKNVISDIYSYKGDGKTKDDALDSLANAYLLLTLNYKEKLFHFGRFKYL”, the “soluble on expression in E. coli” value is reported as “not soluble”.
In the case of “MGRVGVLLANLGTPDDYSYWPMRRYLNEFLSDKRVIDYPAWKWQPILQGIILTKRPFSSGAAYESIWNHDKGESPLMTITKDQTAKLRAALAERYGDRVMVDFCMRYGNPSTKSKVRQMVTEGCDRILFFPLYPQYAGATTATANDQFFRALMDETWQPAARTVPAYFDQPAYVDALAQSIERAYAAMDSRPDVLVCSYHGMPERYLMQGD”, the “soluble on expression in E. coli” value is reported as “not soluble”.
With “MHKIRVIESTLGYPQKNRMESESYEGVQTYMDMKDGSLIAVQPNKDDLMSQILSPDNLNRAYLQVVRNKGVGGVDRMDFKQLLPYLHEHKSELIESIRIGRYKPNSVRRVDIAKDNGKKRLIGIPTVVDRLIQQAIVQVLSPIYERQFSPSSFGFRPDVVRMLEHHHHHH” the “soluble on expression in E. coli” value was “not soluble”.

From the DeepSol protein solubility set
